Reference: patent publication US20230094083A1 (YEDA RESEARCH AND DEVELOPMENT, published 2023)

Experiments:
[1] = biological target: human Grp94 on the cell surface (senescent IMR-90 human lung fibroblasts; IPF patient lung fibroblasts) (human) (UniProt P14625); assay: cell-based or functional assay
[2] = biological target: T1, mouse Grp94 on the cell surface (Meth A sarcoma cells; senescent primary mouse lung fibroblasts) (mouse, UniProt P08113 22-802); assay: flow cytometry, neat hybridoma supernatant on Meth A sarcoma cells
T1 construct: whole, on cells; also called Grp94 expressed on the surface of Meth A cells
Description: (§1) Mouse Meth A sarcoma cells (Cat. 400284 CLS, Germany) were cultured using standard tissue culture conditions in RPMI-1640. Cells were seeded at 1×10⁵ in 100 microliter FACS buffer in 96 well U bottom FACS plates, pelleted and resuspended in 100 microliters neat or 1 in 2 diluted supernatant sample for 30 minutes at 4° C. Cells were washed twice with PBS and resuspended in 100 microliter secondary antibody, AF647 conjugated goat anti-mouse IgG A21236 (Thermo Fisher Scientific) at 2 micrograms/ml in FACS buffer for 30 minutes at 4° C. Cells were washed twice with PBS and resuspended in 100 microliters water containing 10% CellFix (Becton Dickinson, UK). Median fluorescence intensity was measured using an Attune NxT Acoustic Focusing Cytometer (Thermo Fisher Scientific) with autosampler using acquisition parameters optimized with unstained cells and secondary labeled cells: FSC:100, SSC:340, FL1:370. The acquisition rate was 100 microliter/minute stopping at 10,000 R1 events. Positive controls consisted of commercially sourced mouse anti-Grp94 antibodies MA1-10892 (Thermo Fisher Scientific) and MAB7606 (R&D System) at 2 micrograms/ml while negative control consisted of Meth A cells incubated with secondary antibody alone.

[3] = biological target: T2, recombinant human Grp94 (Creative Biomart, USA) (human, UniProt P14625 22-803, limits assumed); assay: Biacore single cycle kinetics, antibody captured, Grp94 as analyte
T2 construct: Bought recombinant protein; It served as immunogen, ELISA coat, Biacore analyte and the immobilised ligand in binning; also called rHGrp94; rhGrp94
Description: Biacore single cycle analysis was performed on supernatants where the monoclonal antibody was captured with Fc on the surface as the ligand and Grp94 flowed over as the analyte. Kinetic experiments were performed on a Biacore T200 running Biacore T200 Control software V2.0.1 and Evaluation software V3.0 (GE Healthcare, Sweden). All single cycle kinetic experiments were run at 25° C. with HBS-P+ running buffer (pH 7.4) (GE Healthcare, UK) containing 1 mg/ml BSA.
Antibodies were diluted in running buffer and at the start of each cycle were loaded onto Fc2, Fc3, and Fc4 of the CM5 chip coupled with an anti-mouse capture antibody using standard amine chemistry (GE Healthcare, UK). IgGs were captured at a flow rate of 10 microliter/minute to give an immobilization level (RL) of approximately 160RU. The surface was then allowed to stabilize. Single cycle kinetic data was obtained with Grp94 (Creative BioMart, USA) as the analyte at a flow rate of 30 microliter/min to minimize any potential mass transport limitations. […] The association phase for the three injections of increasing concentrations of Grp94 was monitored for 150 seconds each time and a single dissociation phase was measured for 900 seconds following the last injection of Grp94. […]

[4] = biological target: T1, mouse Grp94 on the cell surface (Meth A …); assay: ranking of clones by flow cytometry on Meth A sarcoma cells
[5] = biological target: T1, mouse Grp94 on the cell surface (Meth A …); assay: flow cytometry, senescent against proliferating primary mouse lung fibroblasts
[6] = biological target: T3, human Grp94 on the cell surface (senescent IMR-90 human lung fibroblasts; IPF patient lung fibroblasts) (human, UniProt P14625 22-803); assay: flow cytometry on senescent human IMR-90 cells
T3 construct: whole, on cells; also called cell surface Grp94; Grp94 on the cell surface of senescent IMR-90 cells

[7] = biological target: T3, human Grp94 on the cell surface …; assay: immunofluorescence on senescent human IMR-90 cells
[8] = biological target: T3, human Grp94 on the cell surface …; assay: flow cytometry, senescent against proliferating human IMR-90 cells
[9] = biological target: T1, mouse Grp94 on the cell surface (Meth A …); assay: flow cytometry, hybridoma supernatant diluted 1:2 on Meth A sarcoma cells
Description: as §1

[10] = biological target: T1, mouse Grp94 on the cell surface (Meth A …); assay: flow cytometry on senescent primary mouse lung fibroblasts

T1 sequence (P08113 22-802): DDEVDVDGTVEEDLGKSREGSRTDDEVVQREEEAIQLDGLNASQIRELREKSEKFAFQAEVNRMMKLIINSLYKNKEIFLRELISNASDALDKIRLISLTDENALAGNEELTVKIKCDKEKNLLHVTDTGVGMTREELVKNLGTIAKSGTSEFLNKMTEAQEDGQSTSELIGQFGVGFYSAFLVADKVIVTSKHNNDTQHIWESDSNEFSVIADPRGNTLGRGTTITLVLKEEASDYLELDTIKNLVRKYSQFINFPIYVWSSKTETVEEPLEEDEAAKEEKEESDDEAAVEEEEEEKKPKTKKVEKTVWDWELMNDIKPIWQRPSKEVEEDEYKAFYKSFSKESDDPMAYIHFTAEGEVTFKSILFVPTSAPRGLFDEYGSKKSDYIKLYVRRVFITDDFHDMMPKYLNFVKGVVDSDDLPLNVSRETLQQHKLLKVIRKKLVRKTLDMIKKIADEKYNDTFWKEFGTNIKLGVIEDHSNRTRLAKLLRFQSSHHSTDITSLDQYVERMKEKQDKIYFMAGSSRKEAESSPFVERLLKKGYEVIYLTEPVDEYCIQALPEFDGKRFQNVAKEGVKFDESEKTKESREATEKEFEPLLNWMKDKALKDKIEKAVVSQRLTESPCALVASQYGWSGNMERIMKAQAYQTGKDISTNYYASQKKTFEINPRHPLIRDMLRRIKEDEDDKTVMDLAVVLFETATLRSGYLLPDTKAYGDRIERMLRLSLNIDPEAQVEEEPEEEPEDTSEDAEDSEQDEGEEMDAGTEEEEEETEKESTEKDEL
T3 sequence (P14625 22-803): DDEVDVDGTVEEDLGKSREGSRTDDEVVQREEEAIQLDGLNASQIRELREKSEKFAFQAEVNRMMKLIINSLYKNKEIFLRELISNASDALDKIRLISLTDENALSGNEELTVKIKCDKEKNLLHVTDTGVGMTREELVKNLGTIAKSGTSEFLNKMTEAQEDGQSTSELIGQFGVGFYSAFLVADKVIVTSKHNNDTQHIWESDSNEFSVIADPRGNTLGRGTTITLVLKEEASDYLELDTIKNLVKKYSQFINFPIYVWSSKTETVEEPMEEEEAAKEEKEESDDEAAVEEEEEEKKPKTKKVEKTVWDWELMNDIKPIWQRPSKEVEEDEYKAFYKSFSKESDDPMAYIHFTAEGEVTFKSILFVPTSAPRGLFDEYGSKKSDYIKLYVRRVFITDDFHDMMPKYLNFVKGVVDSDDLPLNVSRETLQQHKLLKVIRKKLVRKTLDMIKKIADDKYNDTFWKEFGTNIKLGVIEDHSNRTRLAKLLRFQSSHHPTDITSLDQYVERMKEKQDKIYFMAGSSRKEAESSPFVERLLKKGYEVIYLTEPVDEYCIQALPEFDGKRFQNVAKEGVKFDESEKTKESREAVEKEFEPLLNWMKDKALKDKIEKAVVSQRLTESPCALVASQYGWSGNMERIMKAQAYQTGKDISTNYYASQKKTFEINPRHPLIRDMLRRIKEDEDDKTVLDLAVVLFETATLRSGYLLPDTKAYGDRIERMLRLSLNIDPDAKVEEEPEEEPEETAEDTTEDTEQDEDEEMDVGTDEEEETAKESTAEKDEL
T2 sequence (P14625 22-803 limits assumed): as the sequence (P14625 22-803) above
Sequence of human Grp94 on the cell surface (senescent IMR-90 human lung fibroblasts; IPF patient lung fibroblasts) (human) (P14625 22-803): as above

ADCC reporter-gene assay (Promega, mouse FcgRIV effector cells), activation of the reporter; target cells senescent IMR-90 [1] | mFcγRIV ADCC Reporter Bioassay (Promega), activation of the reporter gene; target cells senescent IMR-90 [1] | Meth A Binding (mean fluorescence intensity) [2] | Kd [3] | Top 24 by Meth A (rank score, 1 = best binder) [4] | Mouse FACS ratio (senescent cells / proliferating cells) [5] | Human FACS plot (score 1-9, 1 = best) [6] | Human IF (score 1-9, 1 = best) [7] | Human FACS ratio (senescent cells / proliferating cells) [8] | Meth A Dilution 1:2 (mean fluorescence intensity) [9] | Mouse FACS (score 1-9, 1 = best) [10] | Binder
20 fold | 20 fold | – | – | – | – | – | – | – | – | – | optimized anti-Grp94 4C2 antibody (mouse IgG2a, Fc substitutions S239D and I332E, afucosylated) (antibody, part only; not given: mutant mouse IgG2a and light constant, V domains shown, not shown: another chain or arm of the molecule; a dimerising Fc or GST, The Fc substitutions S239D and I332E (paragraph 258 prints the second as 1332E; paragraph 22 has I332E) and the afucosylated Fc glycan lie in the constant region. The letters given do not carry them.) VH: EVQLVETGGGLVQPKGSLKLSCAASGFTFNTNAMNWVRQAPGKGLEWVARIRSKSNNYATYYADSVKDRFTISRDDSQSMLFLQMNNLKTEDTAMYYCVRDTLAWFAYWGQGTLVTVSA VL: QIVLTQSPAIMSASPGEKVTITCSASSSVSYMHWFQQKPDTSPKLWIYSTSNLASGVPARFSASGSGTSYSLTISRMEAEDAATYYCQQKTSYPPTFGAGTKLELK
– | – | 2690 RFU (mean fluorescence intensity) | 3.47 nM | 1 rank | 5 ratio | 4 score | 1 score | 1 ratio | 1990 RFU (mean fluorescence intensity) | – | anti-Grp94 monoclonal antibody clone 4C2 (antibody, V domains shown, Mouse hybridoma antibody; It was tested as hybridoma supernatant in the screens (ELISA, Meth A FACS, Biacore, binning); also called 4C2 clone hybridoma supernatant; monoclonal antibody 4C2) VH: EVQLVETGGGLVQPKGSLKLSCAASGFTFNTNAMNWVRQAPGKGLEWVARIRSKSNNYATYYADSVKDRFTISRDDSQSMLFLQMNNLKTEDTAMYYCVRDTLAWFAYWGQGTLVTVSA VL: QIVLTQSPAIMSASPGEKVTITCSASSSVSYMHWFQQKPDTSPKLWIYSTSNLASGVPARFSASGSGTSYSLTISRMEAEDAATYYCQQKTSYPPTFGAGTKLELK
– | – | 819 RFU (mean fluorescence intensity) | 2.5 nM | 12 rank | 6 ratio | 3 score | 3 score | 3 ratio | 746 RFU (mean fluorescence intensity) | – | anti-Grp94 monoclonal antibody clone 5B2 (antibody, mouse IgG2a, V domains shown, Mouse hybridoma antibody, tested as hybridoma supernatant) VH: EVQLVETGGGLVQPKGSLKLSCAASGFTFNTNAMNWVRQAPGKGLEWVARIRSKSNNYATYYADSVKDRFTISRDDSQNMFYLQMNNLKTEDTAMYYCVRDTATWFAYWGQGTLVTVSA VL: QIVLTQSPALMSASPGEKVTIACSASSSVSYMHWFQQKPGTSPKLWIYSTSNLASGVPARFSGSGSGTSYSLTISRMEAEDAATYYCQQKTSYPPTFGSGTKLEIK
– | – | 732 RFU (mean fluorescence intensity) | – | 18 rank | 7 ratio | 1 score | 4 score | 6 ratio | 688 RFU (mean fluorescence intensity) | 4 score | anti-Grp94 monoclonal antibody clone 9A3 (antibody, mouse IgG2a, V domains shown, Mouse hybridoma antibody, tested as hybridoma supernatant) VH: EVKLVESGGGLVKPGGSLKLSCAASGFTFRTYAMSWVRQTPEKRLEWVATITTGGPTYYPDNVKGRFTISRDNDRNILDLQMNSLRSEDTATYYCLRGATTGDYWGQGTTLIVSS VL: DIVMTQSHKFMFTSVGDRVSITCKASHDVSTAVAWYQQKPGQYPKLLIYWASNRYTGVPDRFTGSGSGMDFTFTISSVQAEDLAVYYCQQHSSTPYTFGGGTRLEIK
